Measured values as given in the Immune Epitope Database (IEDB).

How the values were obtained:
[1] = molecular target: HLA-A*31:01; assay: IEDB peptide-MHC binding, purified MHC/direct/fluorescence; filed as Kd, often an IC50 or EC50 that approximates it; ≥ and ≤ were set here for values at or beyond the usual limits of such assays
[2] = molecular target: HLA-A*01:01; assay: as above
[3] = molecular target: HLA-B*40:01; assay: as above
[4] = molecular target: HLA-B*08:01; assay: as above
[5] = molecular target: HLA-B*07:02; assay: as above
[6] = molecular target: HLA-A*02:01; assay: as above
[7] = molecular target: HLA-B*58:01; assay: as above
[8] = molecular target: HLA-B*15:01; assay: as above
[9] = molecular target: HLA-A*11:01; assay: as above
[10] = molecular target: HLA-A*03:01; assay: as above
[11] = molecular target: HLA-A*69:01; assay: as above
[12] = molecular target: HLA-A*26:01; assay: as above
[13] = molecular target: HLA-B*44:02; assay: as above
[14] = molecular target: HLA-B*27:05; assay: as above
[15] = molecular target: HLA-A*30:01; assay: as above
[16] = molecular target: HLA-A*29:02; assay: IEDB peptide-MHC binding, purified MHC/competitive/fluorescence; filed as Kd, often an IC50 or EC50 that approximates it; ≥ and ≤ were set here for values at or beyond the usual limits of such assays
[17] = molecular target: HLA-A*24:03; assay: IEDB peptide-MHC binding, purified MHC/direct/fluorescence; filed as Kd, often an IC50 or EC50 that approximates it; ≥ and ≤ were set here for values at or beyond the usual limits of such assays
[18] = molecular target: HLA-B*35:01; assay: as above
[19] = molecular target: HLA-B*18:01; assay: as above
[20] = molecular target: HLA-B*08:02; assay: as above
[21] = molecular target: HLA-B*57:01; assay: as above; settings: source organism: Coxiella burnetii
[22] = molecular target: HLA-B*15:17; assay: as above; settings: source organism: Coxiella burnetii
[23] = molecular target: HLA-B*48:01; assay: as above
[24] = molecular target: HLA-A*68:02; assay: as above; settings: source organism: Coxiella burnetii
[25] = molecular target: HLA-A*26:02; assay: as above; settings: source organism: Coxiella burnetii Q321
[26] = molecular target: HLA-B*46:01; assay: as above
[27] = molecular target: HLA-C*15:02; assay: as above; settings: source organism: Cryptosporidium parvum Iowa II
[28] = molecular target: HLA-B*46:01; assay: IEDB peptide-MHC binding, purified MHC/competitive/fluorescence; filed as Kd, often an IC50 or EC50 that approximates it; ≥ and ≤ were set here for values at or beyond the usual limits of such assays; settings: source organism: Psychromonas sp. PRT-SC03
[29] = molecular target: HLA-B*57:01; assay: as above; settings: source organism: Vibrio antiquarius
[30] = molecular target: HLA-B*15:17; assay: as above; settings: source organism: Vibrio antiquarius
[31] = molecular target: HLA-A*02:03; assay: as above; settings: source organism: Vibrio antiquarius
[32] = molecular target: HLA-A*02:01; assay: as above; settings: source organism: Vibrio antiquarius
[33] = molecular target: HLA-B*15:01; assay: as above; settings: source organism: Vibrio antiquarius
[34] = molecular target: HLA-A*11:01; assay: as above; settings: source organism: Vibrio antiquarius
[35] = molecular target: HLA-A*02:06; assay: as above; settings: source organism: Vibrio antiquarius
[36] = molecular target: HLA-A*29:02; assay: IEDB peptide-MHC binding, purified MHC/direct/fluorescence; filed as Kd, often an IC50 or EC50 that approximates it; ≥ and ≤ were set here for values at or beyond the usual limits of such assays; settings: source organism: Vibrio parahaemolyticus AQ3810
[37] = molecular target: HLA-B*51:01; assay: as above; settings: source organism: Vibrio parahaemolyticus AQ3810
[38] = molecular target: HLA-C*14:02; assay: as above; settings: source organism: Azotobacter vinelandii DJ
[39] = source organism: Giardia lamblia ATCC 50803
[40] = source organism: Ectopseudomonas mendocina
[41] = source organism: Pseudomonas aeruginosa
[42] = source organism: Coxiella burnetii
[43] = source organism: Coxiella burnetii Q321
[44] = source organism: Escherichia coli O157:H7
[45] = source organism: Enterobacteria phage f1
[46] = source organism: Vibrio parahaemolyticus
[47] = source organism: Vibrio parahaemolyticus AQ3810
[48] = source organism: Burkholderia mallei ATCC 23344
[49] = source organism: Burkholderia mallei

Question: What does the source list for EFDNYRGTI?
Answer: Kd [1, 39]: ≥ 20 µM; Kd [2, 39]: ≥ 20 µM; Kd [3, 39]: 16.5 µM; Kd [4, 39]: ≥ 20 µM; Kd [5, 39]: ≥ 20 µM; Kd [6, 39]: ≥ 20 µM; Kd [7, 39]: ≥ 20 µM; Kd [8, 39]: ≥ 20 µM; Kd [9, 39]: ≥ 20 µM; Kd [10, 39]: ≥ 20 µM; Kd [11, 39]: ≥ 20 µM; Kd [12, 39]: ≥ 20 µM; Kd [13, 39]: ≥ 20 µM; Kd [14, 39]: ≥ 20 µM; Kd [15, 39]: 7.45 µM

Question: How did the Kd ([16]; source organism: Entamoeba dispar SAW760) turn out when PVPDFPYRY was run?
Answer: The Kd was 0.0068 µM.

Question: Which Kd [1, 40] does the source give for FSDARLAKL here?
Answer: The Kd was at least 20 µM.

Question: What about the Kd [2, 41] of the same sequence?
Answer: Its Kd is 7.32 µM.

Question: And the Kd [3, 41]?
Answer: The Kd was 8.72 µM.

Question: What about the Kd [4, 41] of the same sequence?
Answer: Its Kd is 5.3 µM.

Question: What about the Kd [5, 41] of the same sequence?
Answer: Its Kd is 7.92 µM.

Question: And the Kd [17, 40]?
Answer: Its Kd is at least 20 µM.

Question: And the Kd [6, 41]?
Answer: The Kd was 18 µM.

Question: What about the Kd [7, 40] of the same sequence?
Answer: Its Kd is at least 20 µM.

Question: What about the Kd [18, 41] of the same sequence?
Answer: The Kd was 0.797 µM.

Question: And the Kd [8, 40]?
Answer: Its Kd is at least 20 µM.

Question: And the Kd [9, 40]?
Answer: The Kd was at least 20 µM.

Question: And the Kd [10, 40]?
Answer: The Kd was at least 20 µM.

Question: What about the Kd [11, 40] of the same sequence?
Answer: Its Kd is at least 20 µM.

Question: And the Kd [12, 40]?
Answer: The Kd was at least 20 µM.

Question: And the Kd [14, 40]?
Answer: Its Kd is at least 20 µM.

Question: Which results are given for VFFKQWFEK?
Answer: Kd [1, 42]: 0.066 µM; Kd [2, 42]: ≥ 20 µM; Kd [19, 42]: ≥ 20 µM; Kd [3, 42]: ≥ 20 µM; Kd [20, 43]: ≥ 20 µM; Kd [21]: ≥ 20 µM; Kd [4, 43]: ≥ 20 µM; Kd [22]: ≥ 20 µM; Kd [23, 42]: ≥ 20 µM; Kd [5, 42]: ≥ 20 µM; Kd [24]: ≥ 20 µM; Kd [25]: ≥ 20 µM; Kd [6, 42]: ≥ 20 µM; Kd [7, 42]: ≥ 20 µM; Kd [26, 42]: ≥ 20 µM; Kd [8, 42]: ≥ 20 µM; Kd [9, 42]: 0.163 µM; Kd [10, 42]: 0.312 µM; Kd [11, 42]: ≥ 20 µM; Kd [12, 43]: ≥ 20 µM; Kd [14, 42]: ≥ 20 µM

Question: With CYPRLWGVR as the sequence, how does the Kd [2, 39] read?
Answer: The Kd was at least 20 µM.

Question: What about the Kd [3, 39] of the same sequence?
Answer: Its Kd is at least 20 µM.

Question: What about the Kd [4, 39] of the same sequence?
Answer: Its Kd is at least 20 µM.

Question: And the Kd [5, 39]?
Answer: The Kd was 9.36 µM.

Question: What about the Kd [6, 39] of the same sequence?
Answer: Its Kd is at least 20 µM.

Question: And the Kd [7, 39]?
Answer: Its Kd is at least 20 µM.

Question: What about the Kd [8, 39] of the same sequence?
Answer: The Kd was at least 20 µM.

Question: And the Kd [9, 39]?
Answer: The Kd was at least 10 µM.

Question: And the Kd [10, 39]?
Answer: Its Kd is at least 20 µM.

Question: And the Kd [11, 39]?
Answer: The Kd was at least 20 µM.

Question: What about the Kd [12, 39] of the same sequence?
Answer: The Kd was at least 20 µM.

Question: And the Kd [13, 39]?
Answer: Its Kd is at least 20 µM.

Question: And the Kd [14, 39]?
Answer: The Kd was at least 20 µM.

Question: And the Kd [15, 39]?
Answer: The Kd was 5.83 µM.

Question: For ADLRFASEF, which Kd [1, 44] is on record?
Answer: Its Kd is at least 20 µM.

Question: What about the Kd [2, 44] of the same sequence?
Answer: The Kd was at least 20 µM.

Question: What about the Kd [3, 44] of the same sequence?
Answer: The Kd was at least 20 µM.

Question: What about the Kd [4, 44] of the same sequence?
Answer: The Kd was 3.84 µM.

Question: What about the Kd [5, 44] of the same sequence?
Answer: Its Kd is 11.7 µM.

Question: And the Kd [17, 44]?
Answer: Its Kd is at least 20 µM.

Question: And the Kd [6, 44]?
Answer: Its Kd is at least 20 µM.

Question: What about the Kd [7, 44] of the same sequence?
Answer: Its Kd is at least 20 µM.

Question: What about the Kd [18, 44] of the same sequence?
Answer: Its Kd is 0.937 µM.

Question: What about the Kd [8, 44] of the same sequence?
Answer: Its Kd is 0.93 µM.

Question: And the Kd [9, 44]?
Answer: Its Kd is at least 20 µM.

Question: What about the Kd [10, 44] of the same sequence?
Answer: Its Kd is at least 20 µM.

Question: What about the Kd [11, 44] of the same sequence?
Answer: The Kd was at least 20 µM.

Question: What about the Kd [12, 44] of the same sequence?
Answer: The Kd was at least 20 µM.

Question: And the Kd [13, 44]?
Answer: Its Kd is at least 20 µM.

Question: And the Kd [14, 44]?
Answer: Its Kd is at least 20 µM.

Question: With SFIPIFYQF as the sequence, how does the Kd ([16]; source organism: Cryptosporidium parvum Iowa II) read?
Answer: Its Kd is 0.0022 µM.

Question: What about the Kd [27] of the same sequence?
Answer: The Kd was at least 20 µM.

Question: Which results are given for TFMYVFSTF?
Answer: Kd [28]: ≥ 20 µM; Kd [2, 45]: ≥ 20 µM; Kd [3, 45]: ≥ 20 µM; Kd [4, 45]: ≥ 20 µM; Kd [5, 45]: ≥ 20 µM; Kd ([17]; source organism: Inovirus M13): 0.00639 µM; Kd ([6]; source organism: Inovirus M13): 8.33 µM; Kd ([7]; source organism: Inovirus M13): 1.1 µM; Kd ([18]; source organism: Inovirus M13): 0.0806 µM; Kd ([8]; source organism: Inovirus M13): 0.695 µM; Kd [9, 45]: ≥ 20 µM; Kd [10, 45]: ≥ 20 µM; Kd [11, 45]: ≥ 20 µM; Kd [12, 45]: ≥ 20 µM; Kd [14, 45]: ≥ 20 µM

Question: For LVAPHMAMM, which Kd [29] is on record?
Answer: Its Kd is 1.13 µM.

Question: And the Kd [30]?
Answer: The Kd was 0.239 µM.

Question: And the Kd [31]?
Answer: The Kd was 1.14 µM.

Question: What about the Kd [32] of the same sequence?
Answer: The Kd was 3.41 µM.

Question: And the Kd [33]?
Answer: Its Kd is 0.0965 µM.

Question: What about the Kd [34] of the same sequence?
Answer: Its Kd is at least 20 µM.

Question: What about the Kd [35] of the same sequence?
Answer: Its Kd is 0.0532 µM.

Question: What about the Kd [1, 46] of the same sequence?
Answer: Its Kd is at least 20 µM.

Question: What about the Kd [2, 46] of the same sequence?
Answer: Its Kd is at least 20 µM.

Question: And the Kd [19, 46]?
Answer: Its Kd is at least 20 µM.

Question: What about the Kd [3, 46] of the same sequence?
Answer: The Kd was at least 20 µM.

Question: What about the Kd [20, 47] of the same sequence?
Answer: Its Kd is at least 20 µM.

Question: What about the Kd [36] of the same sequence?
Answer: The Kd was 0.32 µM.

Question: And the Kd [23, 46]?
Answer: Its Kd is at least 20 µM.

Question: And the Kd [37]?
Answer: The Kd was at least 20 µM.

Question: And the Kd [7, 47]?
Answer: Its Kd is 0.81 µM.

Question: What about the Kd [26, 46] of the same sequence?
Answer: The Kd was 11 µM.

Question: And the Kd [10, 46]?
Answer: Its Kd is at least 20 µM.

Question: What about the Kd [14, 46] of the same sequence?
Answer: The Kd was at least 20 µM.

Question: And the Kd [15, 47]?
Answer: The Kd was at least 20 µM.

Question: How did the Kd [5, 48] turn out when AMYAPYGPF was run?
Answer: The Kd was 9 µM.

Question: What about the Kd [26, 49] of the same sequence?
Answer: Its Kd is 0.958 µM.

Question: What about the Kd [18, 48] of the same sequence?
Answer: The Kd was 1.88 µM.

Question: And the Kd [8, 49]?
Answer: Its Kd is at most 0.001 µM.

Question: And the Kd [38]?
Answer: Its Kd is 0.039 µM.
